Laboratory results: patent US20190112393 (published 2019)
Numbering of substitutions follows the chain as printed. Like-named read-outs stand apart in the source and are kept apart here. Blank lines part the entries; values can stand above or below the binder they belong to.

Assays:
[1] = biological target: human IgE (human); assay: SPR, pH 7.4, 1.2 mM Ca, 37C
[2] = biological target: human IgE (human); assay: SPR, pH 5.8, 3 uM Ca, 37C
[3] = biological target: human IgE (human); assay: SPR, pH 5.8, 1.2 mM Ca, 37C
[4] = biological target: human IgA (human); assay: SPR, pH 5.8, 3 uM Ca, 37C
[5] = biological target: human IgA (human); assay: SPR, pH 7.4, 3 uM Ca, 37C
[6] = biological target: human IgA (human); assay: SPR, pH 7.4, 1.2 mM Ca, 37C
[7] = biological target: human IgA (human); assay: SPR, pH 5.8, 1.2 mM Ca, 37C
[8] = biological target: T1, human FcγRIIa type H (human, UniProt P12318); assay: SPR
T1 chain: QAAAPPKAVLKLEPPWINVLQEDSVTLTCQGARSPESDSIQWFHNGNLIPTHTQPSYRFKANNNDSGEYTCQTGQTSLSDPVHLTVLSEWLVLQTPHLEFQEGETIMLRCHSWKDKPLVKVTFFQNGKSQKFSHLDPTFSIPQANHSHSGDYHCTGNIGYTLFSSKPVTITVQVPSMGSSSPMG

[9] = biological target: T2, human FcγRIa (human, UniProt P12314); assay: SPR
T2 chain: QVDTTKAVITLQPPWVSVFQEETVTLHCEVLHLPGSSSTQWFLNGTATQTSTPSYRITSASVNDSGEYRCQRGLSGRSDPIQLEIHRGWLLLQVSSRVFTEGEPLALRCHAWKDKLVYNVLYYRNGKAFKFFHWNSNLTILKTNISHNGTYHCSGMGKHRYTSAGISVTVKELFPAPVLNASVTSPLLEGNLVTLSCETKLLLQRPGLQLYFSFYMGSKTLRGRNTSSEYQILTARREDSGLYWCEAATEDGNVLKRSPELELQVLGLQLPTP

[10] = biological target: T2, human FcγRIa; assay: SPR
[11] = biological target: T3, human FcγRIIb (human, UniProt P31994); assay: SPR
T3 chain: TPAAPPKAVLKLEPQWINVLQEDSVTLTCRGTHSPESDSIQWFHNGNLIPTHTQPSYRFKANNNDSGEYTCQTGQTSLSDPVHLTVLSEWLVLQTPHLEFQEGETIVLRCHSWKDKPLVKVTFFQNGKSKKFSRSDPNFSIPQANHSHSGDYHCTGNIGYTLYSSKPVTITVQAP

[12] = biological target: T2, human FcγRIa; assay: SPR

Chain of human IgA (human) (VH, as listed by the source): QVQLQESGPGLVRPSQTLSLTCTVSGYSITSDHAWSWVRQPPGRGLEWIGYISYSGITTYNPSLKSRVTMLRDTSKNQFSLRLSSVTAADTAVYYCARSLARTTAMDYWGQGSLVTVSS

B1: 278-IgG1 (clone 278) (antibody, V domains shown)
VH: QSLEESGGRLVTPGTPLTLTCTASGFSLSSYHMSWVRQAPGKGLEWIGVINSAGNTYYASWAKGRFTVSKTSTTVDLNLTSLTTEDTATYFCARYVFSSGSHDIWGPGTLVTVSS
VL: AYDMTQTPASVEVAVGGTVTIKCQASQSIGSWLAWYQQKPGQPPKELIYGTSTLESGVPSRFIGSGSGTEFTLTISGVECADAATYYCQQGYSEDNIDNAFGGGTEVVVKR
Kd [1]: 2.4 nM
Kd [2]: 3900 nM
Kd [3]: 2000 nM

B5: BP267 (antibody)
chain 1: QVQLQESGPGLVKPSETLSLTCAVSGHSISHDHAWSWVRQPPGEGLEWIGFISYSGITNYNPSLQGRVTISRDNSKNTLYLQMNSLRAEDTAVYYCARSLARTTAMDYWGEGTLVTVSSASTKGPSVFPLAPSSKSTSGGTAALGCLVKDYFPEPVTVSWNSGALTSGVHTFPAVLQSSGLYSLSSVVTVPSSSLGTQTYICNVNHKPSNTKVDKKVEPKSCDKTHTCPPCPAPDLLGDDSVFLFPPKPKDTLMISRTPEVTCVVVDVSEEDGEVKFNWYVDGVEVHNAKTKPREEQYNSTYRVVSVLTVLHQDWLNGKEYKCKVSNKALPAPIEKTISKAKGQPREPQVYTLPPSRDELTKNQVSLTCLVKGFYPSDIAVEWESNGQPENNYKTTPPVLDSDGSFFLYSKLTVDKSRWQQGNVFSCSVMHEALHNHYTQESLSLSP
chain 2: not shown
Kd [10]: 4 nM

B7: BP384 (antibody)
chain 1: B5 chain 1 with E270D, Y298D, A332R, K336R
chain 2: not shown
Kd [12]: 3 nM

The remaining lines, values ahead:

Kd [4]: 5000 nM
Kd [5]: 6700 nM
Kd [6]: 39 nM
Kd [7]: 4000 nM
B2: GA2-IgG1 (antibody, V domains shown)
VH: QVQLVQSGAEVKKPGSSVKVSCKASGGTFSSYAISWVRQAPGQGLEWMGGIIPIFGTANYAQKFQGRVTITADESTSTAYMELSSLRSEDTAVYYCARPRWETAISSDAFDIWGQGTMVTVSS
VL: DIQMTQSPSSLSASVGDRVTITCRASQSISDDLNWYQQKPGKAPKLLIYEASNLQSGVPSRFSGSGSGTDFTLTISSLQPEDFATYYCQQHSSSPLTFGQGTKVEIKR

Kd [8]: 1600 nM
B3: BP438 (antibody)
chain 1: B5 chain 1 with S269A, A332R, I334T
chain 2: not shown

Kd [9]: 0.9 nM
B4: BP447 (antibody)
chain 1: B5 chain 1 with S269A, A332R, P398A
chain 2: not shown

Kd [11]: 40 nM
B6: BP468 (antibody)
chain 1: B5 chain 1 with E270D, Y298D, A332R, K336T
chain 2: not shown

Kd [9]: 0.6 nM
B8: BP456 (antibody)
chain 1: B5 chain 1 with S269A, A332R, P398M
chain 2: not shown
